We go through 37 sequences from the supplement of paper PMC7877785.

The data set in a line: self-splicing fitness, log relative to wild type (ln ratio); higher = more splicing; Tetrahymena group I intron in knt gene, E. coli kanamycin selection, DiMSum; sequences stand for … in CUCUCU…GGAGGGAAAAGUUAUCAGGCAUGCACCUGGUAGCUAGUCUUUAAACCAAUAGAUUGCAUCGGUUUAAAAGGCAAGACCGUCAAAUUGCGGGAAAGGGGUCAACAGCCGUUCAGUACCAAGUCUCAGGGGAAACUUUGAGAUGGCCUUGCAAAGGGUAUGGUAAUAAGCUGACGGACAUGGUCCUAACCACGCAGCCAAGUCCUAAGUCAACAGAUCUUCUGUUGAUAUGGAUGCAGUUCACAGACUAAAUGUCGGUCGGGGAAGAUGUAUUCUUCUCAUAAGAUAUAGUCGGACCUCUCCUUAAUGGGAGCUAGCGGAUGAAGUGAUGCAACACUGGAGCCGCUGGGAACUAAUUUGUAUGCGAAAGUAUAUUGAUUAGUUUUGGAGUACUCGUGGUCG
In a few lines: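 DiMSum derived fitness as the error-weighted combination of fold changes across replicates, kanamycin versus no kanamycin, normalised to wild type. E. coli BL21(DE3) held the library, which randomised all eight P1ex-region intron nucleotides within the knt kanamycin-resistance gene on pET-22b(+). Six replicate transformations grew overnight at 37°C or 30°C on LB agar with or without 25 μg/mL kanamycin, also containing 100 μg/mL carbenicillin, 50 μM IPTG and 0.2% rhamnose, and pooled colonies were amplicon-sequenced on an Illumina HiSeq 2500.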

± gives the uncertainty stated by the source.

For ACAAAGCAAUAUUACGUCGC, the “self-splicing fitness (ln)” value (30 °C) was -2.42 ± 0.11 and the “self-splicing fitness (ln)” value (37 °C) was -2.23 ± 0.16.
For UUCUAGCAAUAUUACGAAAU, in that order: -2.85 ± 0.28 and -1.75 ± 0.32.
The corresponding values for AUACAGCAAUAUUACGGAGG are -3.46 ± 0.21 and -1.8 ± 0.19.
The corresponding values for GGAAAGCAAUAUUACGACCG are -0.761 ± 0.12 and -0.184 ± 0.17.
As for GUGGAGCAAUAUUACGGUAU, the “self-splicing fitness (ln)” value was -2.04 ± 0.23 (30 °C) and -1.71 ± 0.27 (37 °C).
For GACGAGCAAUAUUACGGCGA, in that order: -2.12 ± 0.13 and -1.65 ± 0.13.
With CUCAAGCAAUAUUACGUCAA, the “self-splicing fitness (ln)” value by setting is: (30 °C) -4.09 ± 0.35; (37 °C) -2.31 ± 0.19.
Consider CGGAAGCAAUAUUACGAGUG, for which the “self-splicing fitness (ln)” value reads like this: (30 °C) -0.361 ± 0.05; (37 °C) -0.0668 ± 0.075.
On to ACGCAGCAAUAUUACGCGGA, for which the “self-splicing fitness (ln)” value was -2.95 ± 0.22 (30 °C) and -1.87 ± 0.17 (37 °C).
Consider CUCAAGCAAUAUUACGCUAU, for which the “self-splicing fitness (ln)” value (30 °C) is -3.05 ± 0.18 and the “self-splicing fitness (ln)” value (37 °C) was -2.17 ± 0.16.
In the case of CCGAAGCAAUAUUACGGUUA, where the note is “37 °C”, the “self-splicing fitness (ln)” value is -2.08 ± 0.24.
Take ACAGAGCAAUAUUACGUCAG: the “self-splicing fitness (ln)” value by setting is: (30 °C) -3.02 ± 0.13; (37 °C) -2.43 ± 0.2.
As for GUUAAGCAAUAUUACGUGGU, the “self-splicing fitness (ln)” value is, setting by setting: (30 °C) -2.79 ± 0.15; (37 °C) -2.35 ± 0.19.
For the sequence UUGCAGCAAUAUUACGUAAU, the “self-splicing fitness (ln)” value (30 °C) was -2.83 ± 0.098 and the “self-splicing fitness (ln)” value (37 °C) is -2.24 ± 0.14.
Consider UGCAAGCAAUAUUACGGUGC, for which the “self-splicing fitness (ln)” value (30 °C) is -3.59 ± 0.16 and the “self-splicing fitness (ln)” value (37 °C) was -2.49 ± 0.19.
Consider CUUAAGCAAUAUUACGUAGU, for which the “self-splicing fitness (ln)” value (30 °C) is -3.14 ± 0.13 and the “self-splicing fitness (ln)” value (37 °C) is -2.3 ± 0.18.
As to GGCCAGCAAUAUUACGCCAU, the “self-splicing fitness (ln)” value reads like this: (30 °C) -3.57 ± 0.33; (37 °C) -2.12 ± 0.28.
Turning to GGUCAGCAAUAUUACGACUG, the “self-splicing fitness (ln)” value is -0.394 ± 0.15 (30 °C) and -0.586 ± 0.2 (37 °C).
Regarding AAGCAGCAAUAUUACGUGUG, the “self-splicing fitness (ln)” value (30 °C) was -2.67 ± 0.083 and the “self-splicing fitness (ln)” value (37 °C) is -1.92 ± 0.11.
For ACGAAGCAAUAUUACGUGAA, the “self-splicing fitness (ln)” value reads like this: (30 °C) -2.43 ± 0.089; (37 °C) -1.64 ± 0.13.
AUACAGCAAUAUUACGUAAG: the “self-splicing fitness (ln)” value reads like this: (30 °C) -0.561 ± 0.05; (37 °C) -0.0861 ± 0.068.
The corresponding values for UUGGAGCAAUAUUACGGUGG are -3.06 ± 0.16 and -3.08 ± 0.23.
ACCUAGCAAUAUUACGGUUU: the “self-splicing fitness (ln)” value by setting is: (30 °C) -1.85 ± 0.065; (37 °C) -0.482 ± 0.087.
Take GGUUAGCAAUAUUACGGGCG: the “self-splicing fitness (ln)” value was 0.777 ± 0.094 (30 °C) and 0.208 ± 0.1 (37 °C).
The corresponding values for CUUAAGCAAUAUUACGUCAU are -4.2 ± 0.26 and -2.84 ± 0.19.
Turning to CUAUAGCAAUAUUACGUUUG, the “self-splicing fitness (ln)” value (30 °C) is -1.38 ± 0.084 and the “self-splicing fitness (ln)” value (37 °C) is -1.11 ± 0.11.
For UCACAGCAAUAUUACGGCGA, in that order: 0.0998 ± 0.092 and 0.202 ± 0.094.
The corresponding values for UGGUAGCAAUAUUACGCACA are -0.0584 ± 0.068 and 0.436 ± 0.074.
As for UAAAAGCAAUAUUACGUACA, the “self-splicing fitness (ln)” value reads like this: (30 °C) -1.05 ± 0.1; (37 °C) -0.00957 ± 0.14.
Regarding UAUAAGCAAUAUUACGUUCU, the “self-splicing fitness (ln)” value (30 °C) is -1.03 ± 0.14 and the “self-splicing fitness (ln)” value (37 °C) is -1.41 ± 0.2.
CCUCAGCAAUAUUACGCCGU: the “self-splicing fitness (ln)” value (30 °C) is -3.05 ± 0.23 and the “self-splicing fitness (ln)” value (37 °C) is -2.08 ± 0.25.
On to GACAAGCAAUAUUACGCAGG, for which the “self-splicing fitness (ln)” value (30 °C) is -3 ± 0.13 and the “self-splicing fitness (ln)” value (37 °C) is -1.71 ± 0.13.
Turning to AUUAAGCAAUAUUACGAACU, the “self-splicing fitness (ln)” value runs as follows: (30 °C) -0.318 ± 0.12; (37 °C) 0.315 ± 0.16.
On to AGAUAGCAAUAUUACGUGAG, for which the “self-splicing fitness (ln)” value is -1.89 ± 0.072 (30 °C) and -0.685 ± 0.08 (37 °C).
On to AUUAAGCAAUAUUACGGGAG, for which the “self-splicing fitness (ln)” value reads like this: (30 °C) -3.06 ± 0.23; (37 °C) -1.89 ± 0.18.
In the case of UAGCAGCAAUAUUACGACGG, the “self-splicing fitness (ln)” value runs as follows: (30 °C) -0.73 ± 0.09; (37 °C) -0.313 ± 0.12.
For the sequence UAUCAGCAAUAUUACGCACC, the “self-splicing fitness (ln)” value was -0.885 ± 0.22 (30 °C) and 0.3 ± 0.29 (37 °C).
